Source: the Human Domainome abundance scans (Beltran et al. 2025)
± gives the uncertainty stated by the source.

B1: Peroxisome proliferator-activated receptor delta, residues 71 to 145; numbered along this chain, Q03181 (parent)
chain: NMECRVCGDKASGFHYGVHACEGCKGFFRRTIRMKLEYEKCERSCKIQKKNRNKCQYCRFQKCLALGMSHNAIRF

Variants of: B1
Experiment: abundance fitness (aPCA) (normalised: wild type 0, dead -1); higher = more abundant; growth selection in yeast, the domain comes from the species named
Conditions: Homo sapiens

Abundance fitness, by site and new letter:
K50: I 0.132 ± 0.095; W -0.056 ± 0.042; R -0.06 ± 0.035; M 0.034 ± 0.054; P -0.089 ± 0.071; D 0.094 ± 0.059; L -0.069 ± 0.042; A 0.06 ± 0.036; Y -0.295 ± 0.13; Q 0.077 ± 0.056; T -0.018 ± 0.051; F 0.07 ± 0.17; V -0.129 ± 0.041; N 0.147 ± 0.085; E 0.111 ± 0.045; S -0.046 ± 0.048; C -0.164 ± 0.066
R52: F -0.155 ± 0.12; I 0.012 ± 0.087; M -0.078 ± 0.056; T -0.012 ± 0.047; E -0.037 ± 0.042; C -0.241 ± 0.076; N -0.084 ± 0.09; L -0.087 ± 0.042; V 0.07 ± 0.038; Q -0.03 ± 0.052; P 0.128 ± 0.045; Y 0.012 ± 0.14; D 0.075 ± 0.065; K 0.207 ± 0.049; H -0.307 ± 0.11; S -0.022 ± 0.04; W -0.286 ± 0.056
R43: V -0.158 ± 0.049; W -0.252 ± 0.049
N53: A -0.086 ± 0.041; Q -0.152 ± 0.064; P -0.468 ± 0.087; S -0.005 ± 0.042; Y -0.249 ± 0.098; K -0.104 ± 0.069; H -0.152 ± 0.099; C -0.274 ± 0.11; T -0.112 ± 0.051; G -0.033 ± 0.035; W -0.127 ± 0.048; E 0.123 ± 0.042; L -0.217 ± 0.044; F -0.083 ± 0.092; D -0.08 ± 0.067; R -0.185 ± 0.037; I -0.051 ± 0.074; M -0.067 ± 0.052
C45: F -0.647 ± 0.13; V -0.84 ± 0.08; Q -0.884 ± 0.2; G -0.787 ± 0.054; E -0.838 ± 0.1; K -0.927 ± 0.17; I -0.842 ± 0.23; H -0.218 ± 0.17; N -0.835 ± 0.22; T -1 ± 0.17; R -0.768 ± 0.061; S -0.743 ± 0.095; Y -0.374 ± 0.11; W -0.864 ± 0.12; D -1.01 ± 0.25; L -0.766 ± 0.1; P -0.876 ± 0.18; M -0.548 ± 0.11
K46: H 0.047 ± 0.068; W -0.153 ± 0.043; V 0.023 ± 0.032; T 0.05 ± 0.046; N 0.029 ± 0.067; D 0.142 ± 0.04; Y -0.051 ± 0.07; Q 0.106 ± 0.047; M 0.066 ± 0.047; L 0.022 ± 0.033; F 0.015 ± 0.052; S 0.006 ± 0.038; I 0.12 ± 0.068; R -0.037 ± 0.029; C -0.046 ± 0.052; A 0.007 ± 0.034; P 0.037 ± 0.044; E 0.124 ± 0.04
I47: R -0.502 ± 0.034; S -0.287 ± 0.038; G -0.269 ± 0.025; F -0.246 ± 0.074; Y -0.419 ± 0.11; C -0.51 ± 0.062; V 0.004 ± 0.027; N -0.4 ± 0.098; H -0.589 ± 0.1; M -0.132 ± 0.044; D -0.126 ± 0.054; W -0.316 ± 0.034; E -0.235 ± 0.035; K -0.453 ± 0.061; T -0.253 ± 0.048
S44: D 0.055 ± 0.056; I -0.212 ± 0.091; C -0.164 ± 0.062; Q 0.069 ± 0.049; Y 0.061 ± 0.058; H 0.073 ± 0.065; A -0.045 ± 0.039; G 0.055 ± 0.03; W -0.314 ± 0.058; E 0.139 ± 0.04; M 0.028 ± 0.047; K 0.12 ± 0.051; T -0.049 ± 0.05; R -0.05 ± 0.032; L -0.038 ± 0.037; P -0.134 ± 0.058; V -0.086 ± 0.039; F -0.005 ± 0.074
K54: Q -0.012 ± 0.048; F 0.065 ± 0.072; W -0.036 ± 0.047; L -0.046 ± 0.039; V -0.037 ± 0.035; M 0.052 ± 0.052; S -0.079 ± 0.043; E 0.122 ± 0.041; A 0.009 ± 0.04; H -0.059 ± 0.091; T -0.017 ± 0.046; D -0.02 ± 0.063; I -0.031 ± 0.072; P -0.037 ± 0.053
N51: G -0.129 ± 0.033; P -0.307 ± 0.099; Y -0.363 ± 0.15; E 0.055 ± 0.039; K -0.212 ± 0.065; S -0.052 ± 0.048; M -0.026 ± 0.072; Q -0.042 ± 0.063; A -0.154 ± 0.043; W -0.408 ± 0.071; V -0.17 ± 0.043; I -0.016 ± 0.1; C -0.451 ± 0.12; L -0.133 ± 0.054; H -0.071 ± 0.089; T -0.002 ± 0.062; F -0.028 ± 0.12; D 0.086 ± 0.053; R -0.395 ± 0.055
K49: V 0.066 ± 0.12; W 0.006 ± 0.16; F -0.045 ± 0.22; L 0.066 ± 0.26; G 0.202 ± 0.13; E 0.144 ± 0.15; M -0.065 ± 0.17; H 0.602 ± 0.38; T 0.023 ± 0.18; S -0.207 ± 0.41; A 0 ± 0.15
